From patent US6087115A, “Methods of identifying negative antagonists for G protein coupled receptors” (Cornell Research Foundation, Inc., priority 1997, dated 2000)

Assays:
[1] = test system: human IL-8 receptors (type A or B); assay: Inositol phosphate accumulation in COS-1 cells transfected with human IL-8 receptor plasmids with or without Ga16/Ga15; assay type: cell-based; conditions: COS cells expressing IL-8 receptors without cotransfected Ga16 or Ga15, absence or presence of IL-8
[2] = target: human IL-8 receptor types A or B; conditions: values previously reported (Holmes et al. 1991; Murphy and Tiffany 1991); cited from earlier work
[3] = target: T1, KSHV GPCR (Human herpesvirus 8 type P, UniProt Q98146); assay: Competition binding of 125I-IL-8 by unlabelled chemokines to COS-1 cells transfected with pcKSHV GPCR; conditions: for binding to KSHV GPCR (in words): competition analysis with 125I-IL-8, FIGS. 2 and 3; for Ki: competition of human recombinant 125I-IL-8, COS-1 cells transfected with pcKSHV GPCR, 4° C., 2 hrs, read-out: Kd or Ki
T1 construct: expressed in transfected cells; host or cells: COS-1
T1 sequence (Q98146 1-342): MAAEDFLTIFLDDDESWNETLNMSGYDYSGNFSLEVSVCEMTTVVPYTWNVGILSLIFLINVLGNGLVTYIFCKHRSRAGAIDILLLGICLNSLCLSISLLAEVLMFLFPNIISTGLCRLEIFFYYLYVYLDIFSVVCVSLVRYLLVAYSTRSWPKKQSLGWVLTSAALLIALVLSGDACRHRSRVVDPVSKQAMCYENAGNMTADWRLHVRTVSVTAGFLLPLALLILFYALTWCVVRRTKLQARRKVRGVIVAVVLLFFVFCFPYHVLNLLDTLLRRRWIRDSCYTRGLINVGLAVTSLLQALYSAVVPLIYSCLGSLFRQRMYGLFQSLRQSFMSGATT
Method: Data represent the mean of triplicate determinations in a representative of two experiments;
Competition binding. The coding sequence of KSHV GPCR was cleaved from its original subcloning plasmid (Cesarman et al. 1996) by digestion with NcoI and inserted into the EcoRV site of the eukaryotic expression vector pcDNA3.1(+) (Invitrogen), producing the pcKSHV GPCR used for expression in mammalian cells. COS-1 cells (American Type Culture Collection) were grown in 100 mm petri dishes in Dulbecco's modified Eagle's medium (DMEM; GIBCO-BRL) with 5% Nu-Serum (Collaborative Research) in a humidified incubator in an atmosphere of 5% CO2 at 37° C. […] Approximately 100,000 cells per well (in 12-well plates) were washed with Hank's balanced salt solution (HBSS) containing 25 mM HEPES, pH 7.4 (GIBCO-BRL). […] The binding buffer contained bovine serum albumin (BSA; 1 mg/ml), bacitracin (1 mg/ml), and phenyl methyl sulphonyl fluoride (PMSF; 1 mM). Assays were terminated by aspirating the binding buffer, washing three times with chilled HBSS and solubilizing the cells with 0.4 N NaOH. An aliquot of this solution was counted in a gamma counter and the data expressed as percent of maximum bound. Binding and dose-response curves were analyzed using Prism software (GraphPad, Inc.).

Row | Molecule | accumulation of IPs [1] | Kd [2] | binding to KSHV GPCR (in words) [3] | Ki [3]
1 | IL-8: member of the family of C-X-C chemokines; used as radioligand and unlabelled competitor | little measurable accumulation | 0.8 to 1 nM | – | –
2 | MCP-1: chemokine of the C-C family | – | – | do not | –
3 | MGSA: C-X-C chemokine | – | – | also bind to KSHV GPCR | 270 nM
4 | PF-4: C-X-C chemokine | – | – | also bind to KSHV GPCR | 150 nM
5 | RANTES: chemokine of the C-C family | – | – | bind to KSHV GPCR | 520 nM
6 | I-309: chemokine of the C-C family (protein, UniProt P22362 24-96, looked up) C-C motif chemokine 1: KSMQVPFSRCCFSFAEQEIPLRAILCYRNTSSICSNEGLIFKLKRGKEACALDTVGWVQRHRKMLRHCPSKRK | – | – | bind to KSHV GPCR | 110 nM
7 | NAP-2: C-X-C chemokine (protein, UniProt P02775 59-128, looked up, Neutrophil-activating peptide 2, C-X-C chemokine) Neutrophil-activating peptide …: AELRCMCIKTTSGIHPKNIQSLEVIGKGTHCNQVEVIATLKDGRKICLDPDAPRIKKIVQKKLAGDESAD | – | – | also bind to KSHV GPCR | 23 nM
8 | MIP-1b: chemokine of the C-C family (protein, UniProt P13236 24-92, looked up) C-C motif chemokine 4: APMGSDPPTACCFSYTARKLPRNFVVDYYETSSLCSQPAVVFQTKRSKQVCADPSESWVQEYVYDLELN | – | – | do not | –
